According to patent publication US20260028403A1 (Zymeworks, published 2026):

How the values were obtained:
[1] = biological target: T1, Recombinant human/cynomolgus/rhesus macaque CD28 mouse IgG2a Fc fusion protein (Acro Biosystems) (human/cynomolgus/rhesus macaque, UniProt P10747 19-152); assay: SPR Biacore T200, CD28-mIgG2a Fc on CM5, construct injected, 1:1 model;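 note: fc fusion captured by amine coupling, run at 25 °C in HEPES buffer pH 7.4, association 140-500 s then dissociation 600-1200 s, values averaged over three independent runs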
T1 construct: bought; also called huCD28

[2] = biological target: T2, Recombinant human CD3 epsilon/delta heterodimer, his tag protein (Acro Biosystems) (human, UniProt P07766 23-126; P04234 22-105); assay: SPR Biacore T200, CD3 e/d-his on CM5, construct injected, 1:1 model;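 note: measured at 25 °C in HEPES-buffered saline with EDTA and Tween 20 at pH 7.4, values are means of three independent runs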
T2 construct: bought

[3] = biological target: T3, Recombinant MSLN his tag protein (R&D systems) (UniProt Q13421 296-580, limits assumed); assay: SPR Biacore T200, MSLN-his on CM5, construct flowed, 1:1 model
T3 construct: his tag; also called mesothelin

Row | Binder | Kd [1] | koff [1] | kon [1] | Kd [2] | koff [2] | kon [2] | Kd [3] | koff [3] | kon [3]
1 | v34913 (trispecific antibody, human IgG1, kappa, L234A L235A, CD3 scFv on N-terminus of CD28 Fab; MSLN scFv-Fc; Het Fc, FcKO; also called CD3xCD28xMSLN trispecific) heavy 1: not shown heavy 2: EIVLTQSPATLSLSPGERVTMSCSASSSVSYMHWYQQKPGQAPRLWIYDTSKLASGVPARFSGSGSGTDYTLTISSVEPEDNAVYYCQQWSGHPLTFGQGTKVEIKGGGGSGGGGSGGGGSGGGGSQVQLVQSGAEVKKPGASVKISCKASGYSFTGYTMNWVRQAPGQGLEWIGLITPYSGASSYAQKFQGRATLTVDKSTSTAYMELSSLRSEDTAVYYCARGGYDGRGFDYWGQGTNVTVSSAAEPKSSDKTHTCPPCPAPEAAGGPSVFLFPPKPKDTLMISRTPEVTCVVVSVSHEDPEVKFNWYVDGVEVHNAKTKPREEQYNSTYRVVSVLTVLHQDWLNGKEYKCKVSNKALPAPIEKTISKAKGQPREPQVYVLPPSRDELTKNQVSLLCLVKGFYPSDIAVEWESNGQPENNYLTWPPVLDSDGSFFLYSKLTVDKSRWQQGNVFSCSVMHEALHNHYTQKSLSLSPG light: DIQMTQSPSSLSASVGDRVTITCRASESVEYYVTSLMQWYQQKPGKAPKLLIYAASNVDSGVPSRFSGSGSGTDFTLTISSLQPEDIATYYCQQSRKVPFTFGGGTKVEIKRTVAAPSVFIFPPSDEQLKSGTASVVCLLNNFYPREAKVQWKVDNALQSGNSQESVTEQDSKDSTYSLSSTLTLSKADYEKHKVYACEVTHQGLSSPVTKSFNRGEC | 45.8 nM | 0.00216 s⁻¹ | 47400 M⁻¹ s⁻¹ | 41.6 nM | 0.0112 s⁻¹ | 270000 M⁻¹ s⁻¹ | 6.49 nM | 0.00212 s⁻¹ | 340000 M⁻¹ s⁻¹
2 | v34914 (trispecific antibody, human IgG1, lambda, L234A L235A, Het Fc, FcKO; also called CD28xCD3xMSLN trispecific) heavy 1: not shown heavy 2: EIVLTQSPATLSLSPGERVTMSCSASSSVSYMHWYQQKPGQAPRLWIYDTSKLASGVPARFSGSGSGTDYTLTISSVEPEDNAVYYCQQWSGHPLTFGQGTKVEIKGGGGSGGGGSGGGGSGGGGSQVQLVQSGAEVKKPGASVKISCKASGYSFTGYTMNWVRQAPGQGLEWIGLITPYSGASSYAQKFQGRATLTVDKSTSTAYMELSSLRSEDTAVYYCARGGYDGRGFDYWGQGTNVTVSSAAEPKSSDKTHTCPPCPAPEAAGGPSVFLFPPKPKDTLMISRTPEVTCVVVSVSHEDPEVKFNWYVDGVEVHNAKTKPREEQYNSTYRVVSVLTVLHQDWLNGKEYKCKVSNKALPAPIEKTISKAKGQPREPQVYVLPPSRDELTKNQVSLLCLVKGFYPSDIAVEWESNGQPENNYLTWPPVLDSDGSFFLYSKLTVDKSRWQQGNVFSCSVMHEALHNHYTQKSLSLSPG light: NFMLTQPHSVSESPGKTVTISCKRNTGNIGSNYVNWYQQHEGSSPTTIIYRNDKRPDGVSDRFSGSIDRSSKSASLTISNLKTEDEADYFCQSYSSGFIFGGGTKLTVLGQPKAAPSVTLFPPSSEELQANKATLVCLISDFYPGAVTVAWKADSSPVKAGVETTTPSKQSNNKYAASSYLSLTPEQWKSHRSYSCQVTHEGSTVEKTVAPTECS | 122 nM | 0.00849 s⁻¹ | 70200 M⁻¹ s⁻¹ | 81.1 nM | 0.0191 s⁻¹ | 237000 M⁻¹ s⁻¹ | 5.39 nM | 0.00197 s⁻¹ | 374000 M⁻¹ s⁻¹
3 | v34916 (trispecific antibody, human IgG1, lambda, L234A L235A, CD28 scFv on C-terminus of the CD3 Fab light chain; Het Fc, FcKO; also called CD3xCD28xMSLN trispecific) heavy 1: not shown heavy 2: EIVLTQSPATLSLSPGERVTMSCSASSSVSYMHWYQQKPGQAPRLWIYDTSKLASGVPARFSGSGSGTDYTLTISSVEPEDNAVYYCQQWSGHPLTFGQGTKVEIKGGGGSGGGGSGGGGSGGGGSQVQLVQSGAEVKKPGASVKISCKASGYSFTGYTMNWVRQAPGQGLEWIGLITPYSGASSYAQKFQGRATLTVDKSTSTAYMELSSLRSEDTAVYYCARGGYDGRGFDYWGQGTNVTVSSAAEPKSSDKTHTCPPCPAPEAAGGPSVFLFPPKPKDTLMISRTPEVTCVVVSVSHEDPEVKFNWYVDGVEVHNAKTKPREEQYNSTYRVVSVLTVLHQDWLNGKEYKCKVSNKALPAPIEKTISKAKGQPREPQVYVLPPSRDELTKNQVSLLCLVKGFYPSDIAVEWESNGQPENNYLTWPPVLDSDGSFFLYSKLTVDKSRWQQGNVFSCSVMHEALHNHYTQKSLSLSPG light: NFMLTQPHSVSESPGKTVTISCKRNTGNIGSNYVNWYQQHEGSSPTTIIYRNDKRPDGVSDRFSGSIDRSSKSASLTISNLKTEDEADYFCQSYSSGFIFGGGTKLTVLGQPKAAPSVTLFPPSSEELQANKATLVCLISDFYPGAVTVAWKADSSPVKAGVETTTPSKQSNNKYAASSYLSLTPEQWKSHRSYSCQVTHEGSTVEKTVAPTECSGGGGSGDIQMTQSPSSLSASVGDRVTITCRASESVEYYVTSLMQWYQQKPGKAPKLLIYAASNVDSGVPSRFSGSGSGTDFTLTISSLQPEDIATYYCQQSRKVPFTFGGGTKVEIKGGGGSGGGGSGGGGSGGGGSQVQLQESGPGLVKPSETLSLTCAVSGFSLTSYGVHWIRQPPGKGLEWLGVIWPGGGTNFNSALMSRLTISEDTSKNQVSLKLSSVTAADTAVYYCARDRAYGNYLYAMDYWGQGTLVTVSS | 56.5 nM | 0.000546 s⁻¹ | 13000 M⁻¹ s⁻¹ | 37.2 nM | 0.0104 s⁻¹ | 291000 M⁻¹ s⁻¹ | 4.78 nM | 0.00181 s⁻¹ | 388000 M⁻¹ s⁻¹
4 | v34917 (trispecific antibody, human IgG1, lambda, L234A L235A, Het Fc, FcKO; also called CD28xCD3xMSLN trispecific) heavy 1: EVQLVESGGGLVQPGGSLRLSCAASGVTFNYYGMSWIRQAPGKGLEWVASITSSGGRIYYPDSVKGRFTISRENTQKTLYLQMNSLRAEDTAVYYCTLDGRDGWVAYWGQGTLVTVSSASTKGPSVFPLAPSSKSTSGGTAALGCLVKDYFPEPVTVSWNSGALTSGVHTFPAVLQSSGLYSLSSVVTVPSSSLGTQTYICNVNHKPSNTKVDKKVEPKSCDKTHTCPPCPAPEAAGGPSVFLFPPKPKDTLMISRTPEVTCVVVSVSHEDPEVKFNWYVDGVEVHNAKTKPREEQYNSTYRVVSVLTVLHQDWLNGKEYKCKVSNKALPAPIEKTISKAKGQPREPQVYVYPPSRDELTKNQVSLTCLVKGFYPSDIAVEWESNGQPENNYKTTPPVLDSDGSFALVSKLTVDKSRWQQGNVFSCSVMHEALHNHYTQKSLSLSPGGGGGSGDIQMTQSPSSLSASVGDRVTITCRASESVEYYVTSLMQWYQQKPGKAPKLLIYAASNVDSGVPSRFSGSGSGTDFTLTISSLQPEDIATYYCQQSRKVPFTFGGGTKVEIKGGGGSGGGGSGGGGSGGGGSQVQLQESGPGLVKPSETLSLTCAVSGFSLTSYGVHWIRQPPGKGLEWLGVIWPGGGTNFNSALMSRLTISEDTSKNQVSLKLSSVTAADTAVYYCARDRAYGNYLYAMDYWGQGTLVTVSS heavy 2: EIVLTQSPATLSLSPGERVTMSCSASSSVSYMHWYQQKPGQAPRLWIYDTSKLASGVPARFSGSGSGTDYTLTISSVEPEDNAVYYCQQWSGHPLTFGQGTKVEIKGGGGSGGGGSGGGGSGGGGSQVQLVQSGAEVKKPGASVKISCKASGYSFTGYTMNWVRQAPGQGLEWIGLITPYSGASSYAQKFQGRATLTVDKSTSTAYMELSSLRSEDTAVYYCARGGYDGRGFDYWGQGTNVTVSSAAEPKSSDKTHTCPPCPAPEAAGGPSVFLFPPKPKDTLMISRTPEVTCVVVSVSHEDPEVKFNWYVDGVEVHNAKTKPREEQYNSTYRVVSVLTVLHQDWLNGKEYKCKVSNKALPAPIEKTISKAKGQPREPQVYVLPPSRDELTKNQVSLLCLVKGFYPSDIAVEWESNGQPENNYLTWPPVLDSDGSFFLYSKLTVDKSRWQQGNVFSCSVMHEALHNHYTQKSLSLSPG light: NFMLTQPHSVSESPGKTVTISCKRNTGNIGSNYVNWYQQHEGSSPTTIIYRNDKRPDGVSDRFSGSIDRSSKSASLTISNLKTEDEADYFCQSYSSGFIFGGGTKLTVLGQPKAAPSVTLFPPSSEELQANKATLVCLISDFYPGAVTVAWKADSSPVKAGVETTTPSKQSNNKYAASSYLSLTPEQWKSHRSYSCQVTHEGSTVEKTVAPTECS | 373 nM | 0.00209 s⁻¹ | 8240 M⁻¹ s⁻¹ | 40.8 nM | 0.0177 s⁻¹ | 444000 M⁻¹ s⁻¹ | 4.96 nM | 0.00199 s⁻¹ | 411000 M⁻¹ s⁻¹
5 | v34927 (bispecific antibody, human IgG1, kappa, L234A L235A, MSLN VL-VH scFv); also called anti-(MSLNxCD28) bispecific control) heavy 1: not shown heavy 2: EIVLTQSPATLSLSPGERVTMSCSASSSVSYMHWYQQKPGQAPRLWIYDTSKLASGVPARFSGSGSGTDYTLTISSVEPEDNAVYYCQQWSGHPLTFGQGTKVEIKGGGGSGGGGSGGGGSGGGGSQVQLVQSGAEVKKPGASVKISCKASGYSFTGYTMNWVRQAPGQGLEWIGLITPYSGASSYAQKFQGRATLTVDKSTSTAYMELSSLRSEDTAVYYCARGGYDGRGFDYWGQGTNVTVSSAAEPKSSDKTHTCPPCPAPEAAGGPSVFLFPPKPKDTLMISRTPEVTCVVVSVSHEDPEVKFNWYVDGVEVHNAKTKPREEQYNSTYRVVSVLTVLHQDWLNGKEYKCKVSNKALPAPIEKTISKAKGQPREPQVYVLPPSRDELTKNQVSLLCLVKGFYPSDIAVEWESNGQPENNYLTWPPVLDSDGSFFLYSKLTVDKSRWQQGNVFSCSVMHEALHNHYTQKSLSLSPG light: DIQMTQSPSSLSASVGDRVTITCRASESVEYYVTSLMQWYQQKPGKAPKLLIYAASNVDSGVPSRFSGSGSGTDFTLTISSLQPEDIATYYCQQSRKVPFTFGGGTKVEIKRTVAAPSVFIFPPSDEQLKSGTASVVCLLNNFYPREAKVQWKVDNALQSGNSQESVTEQDSKDSTYSLSSTLTLSKADYEKHKVYACEVTHQGLSSPVTKSFNRGEC | 50.7 nM | 0.00258 s⁻¹ | 50900 M⁻¹ s⁻¹ | – | – | – | 6.86 nM | 0.00187 s⁻¹ | 270000 M⁻¹ s⁻¹
